In one test the target is HLA-B*15:02. Put plainly: IEDB peptide-MHC binding, purified MHC/competitive/fluorescence; filed as Kd, often an IC50 or EC50 that approximates it; ≥ and ≤ were set here for values at or beyond the usual limits of such assays.
Test [1] has as its target HLA-A*02:01. Put plainly: IEDB peptide-MHC binding, purified MHC/competitive/radioactivity; ≥ and ≤ were set here for values at or beyond the usual limits of such assays.
The target in test [2] is HLA-A*02:01. Put plainly: IEDB peptide-MHC binding, purified MHC/competitive/fluorescence; filed as Kd, often an IC50 or EC50 that approximates it; ≥ and ≤ were set here for values at or beyond the usual limits of such assays.
In a further test the target is HLA-A*02:03. The test is described as above.
For the next test, the target named is HLA-A*02:11. Described as above.
The target of a further test is HLA-A*02:12. Described as above.
Another test addresses HLA-A*02:16. The description is as above.
In another test the target is HLA-A*02:19. The test is described as above.
In another test the target is HLA-A*03:01. The test is described as above.
The next test deals with HLA-A*24:03. Described as above.
The target in another test is HLA-A*26:01. The description is as above.
The target of a further test is HLA-A*29:02. The test is described as above.
A further test addresses HLA-A*31:01. The test is described as above. The conditions noted are these: source organism: Entamoeba histolytica HM-1:IMSS.
Another test concerns the target HLA-A*68:02. Described as above.
In the next test the target is HLA-A*69:01. Described as above.
Another test deals with HLA-B*15:01. Described as above.
A further test addresses HLA-B*15:17. The test is described as above.
For a further test, the target named is HLA-B*18:01. The test is described as above.
A further test has as its target HLA-B*27:03. Described as above.
The target of a further test is HLA-B*39:01. Described as above.
In another test the target is HLA-B*46:01. The test is described as above.
The target in the next test is HLA-B*51:01. Described as above.
A further test has as its target HLA-B*57:01. The description is as above.
In the next test the target is HLA-C*03:03. Put plainly: IEDB peptide-MHC binding, purified MHC/direct/fluorescence; filed as Kd, often an IC50 or EC50 that approximates it; ≥ and ≤ were set here for values at or beyond the usual limits of such assays. The conditions noted are these: source organism: Listeria monocytogenes serotype 4b str. H7858.
Another test has as its target HLA-C*05:01. Described as above. The note with it: source organism: Listeria monocytogenes serotype 4b str. H7858.
In the next test the target is HLA-C*12:03. Described as above. The conditions noted are these: source organism: Listeria monocytogenes serotype 4b str. H7858.
The target of a further test is HLA-A*23:01. Put plainly: IEDB peptide-MHC binding, purified MHC/competitive/fluorescence; filed as Kd, often an IC50 or EC50 that approximates it; ≥ and ≤ were set here for values at or beyond the usual limits of such assays.
Test [3] deals with HLA-A*02:01. Put plainly: IEDB peptide-MHC binding, purified MHC/competitive/radioactivity; filed as Kd, often an IC50 or EC50 that approximates it; ≥ and ≤ were set here for values at or beyond the usual limits of such assays. The note with it: source organism: Homo sapiens.
In a further test the target is HLA-C*07:02. Put plainly: IEDB peptide-MHC binding, purified MHC/direct/fluorescence; filed as Kd, often an IC50 or EC50 that approximates it; ≥ and ≤ were set here for values at or beyond the usual limits of such assays.
A further test has as its target HLA-C*14:02. The description is as above. The conditions noted are these: source organism: Homo sapiens.
The target of the next test is HLA-C*15:02. Described as above. The note with it: source organism: Homo sapiens.
In a further test the target is HLA-A*01:01. Put plainly: IEDB peptide-MHC binding, purified MHC/competitive/fluorescence; filed as Kd, often an IC50 or EC50 that approximates it; ≥ and ≤ were set here for values at or beyond the usual limits of such assays. The note with it: source organism: Homo sapiens.
Another test addresses HLA-B*08:01. Described as above. The conditions noted are these: source organism: Yersinia pestis Nepal516.
[4] abbreviates: source organism: Entamoeba histolytica HM-1:IMSS.
The mark [5] stands for this setting: source organism: Vibrio cholerae V52.
Setting [6] is: source organism: Orthomarburgvirus marburgense.
The mark [7] stands for this setting: source organism: Escherichia coli E22.
Setting [8] is: source organism: Yersinia pestis Nepal516.

A value given as a limit tells only on which side of the number the result lay.

The term Kd denotes the free concentration of one partner at which half of the binding sites on the other are occupied at equilibrium, for simple one-to-one binding. In the test with HLA-B*15:02 (source organism: Venezuelan equine encephalitis virus), HLWNHNQQM returned a Kd of 0.0499 µM.
The IC50 is the concentration needed to halve the response being measured. As for RQASIELPSMAV, the IC50 with HLA-A*02:01 [1] (source organism: Homo sapiens) was 1.77 µM.
MMQGTPYVY: the Kd with HLA-B*15:02 (source organism: Vibrio antiquarius) stood at 0.0059 µM.
For the sequence SLYNAVATL, in the test with HLA-A*02:01 [1] (source organism: Human immunodeficiency virus 1), the IC50 amounted to 0.029 µM.
As to IGKMNKHYK, the Kd in the test with HLA-A*02:01 [2] (setting [4]), with HLA-A*02:03 (setting [4]), in the test with HLA-A*02:11 (setting [4]), in the test with HLA-A*02:12 (setting [4]), with HLA-A*02:16 (setting [4]) and in the test with HLA-A*02:19 (setting [4]) was ≥ 20 µM throughout. Further, the dissociation constant Kd with HLA-A*03:01 (setting [4]) is ≥ 20 µM; with HLA-A*24:03 (setting [4]) it was ≥ 20 µM; with HLA-A*26:01 (setting [4]), ≥ 20 µM; with HLA-A*29:02 (setting [4]) it was ≥ 20 µM; with HLA-A*31:01 it was 0.16 µM; with HLA-A*68:02 (setting [4]), ≥ 20 µM. Also, the Kd with HLA-A*69:01 (setting [4]), in the test with HLA-B*15:01 (setting [4]), in the test with HLA-B*15:17 (setting [4]), with HLA-B*18:01 (setting [4]), in the test with HLA-B*27:03 (setting [4]) and in the test with HLA-B*39:01 (setting [4]) was ≥ 20 µM throughout. Also, the Kd with HLA-B*46:01 (setting [4]), in the test with HLA-B*51:01 (setting [4]) and in the test with HLA-B*57:01 (setting [4]) was ≥ 20 µM each time.
Consider FLPADFFPSI, for which the IC50 with HLA-A*02:01 [1] (source organism: Hepatitis B virus) was found to be 0.016 µM.
For FLMYPNNIF, the Kd with HLA-C*03:03 came out at 0.015 µM; with HLA-C*05:01 it was 0.266 µM; with HLA-C*12:03 it was 0.178 µM; with HLA-B*15:02 (source organism: Listeria monocytogenes serotype 4b str. H7858), 0.0057 µM.
SLFVRSAGQ: the Kd with HLA-B*15:02 (source organism: Burkholderia mallei JHU) was ≥ 20 µM.
Regarding IGYRLGMGK, the Kd with HLA-A*02:01 [2] (setting [5]), with HLA-A*02:03 (setting [5]), in the test with HLA-A*02:11 (setting [5]), with HLA-A*02:12 (setting [5]), with HLA-A*02:16 (setting [5]) and with HLA-A*02:19 (setting [5]) was ≥ 20 µM throughout. In addition, the equilibrium dissociation constant (Kd) was 0.0135 µM with HLA-A*03:01 (setting [5]); ≥ 20 µM with HLA-A*23:01 (setting [5]); ≥ 20 µM in the test with HLA-A*24:03 (setting [5]); ≥ 20 µM with HLA-A*26:01 (setting [5]); ≥ 20 µM with HLA-A*29:02 (setting [5]); ≥ 20 µM with HLA-A*68:02 (setting [5]). The Kd with HLA-A*69:01 (setting [5]), with HLA-B*15:01 (setting [5]), in the test with HLA-B*15:17 (setting [5]), in the test with HLA-B*18:01 (setting [5]), in the test with HLA-B*27:03 (setting [5]) and with HLA-B*39:01 (setting [5]) was ≥ 20 µM throughout. Moreover, the Kd with HLA-B*46:01 (setting [5]), in the test with HLA-B*51:01 (setting [5]) and with HLA-B*57:01 (setting [5]) was ≥ 20 µM throughout.
For the sequence VVLSWAPPV, the IC50 with HLA-A*02:01 [1] (source organism: Homo sapiens) stood at 0.0025 µM. Also, the Kd with HLA-A*02:01 [3] is 0.0084 µM.
As for GIADFIIFK, the Kd with HLA-A*02:01 [2] (setting [6]), with HLA-A*02:03 (setting [6]), with HLA-A*02:11 (setting [6]), in the test with HLA-A*02:12 (setting [6]), with HLA-A*02:16 (setting [6]) and in the test with HLA-A*02:19 (setting [6]) was ≥ 20 µM throughout. Further, the Kd was 0.188 µM in the test with HLA-A*03:01 (setting [6]); ≥ 20 µM with HLA-A*23:01 (setting [6]); ≥ 20 µM in the test with HLA-A*24:03 (setting [6]); ≥ 20 µM with HLA-A*26:01 (setting [6]); ≥ 20 µM with HLA-A*29:02 (setting [6]); ≥ 20 µM with HLA-A*68:02 (setting [6]). The equilibrium dissociation constant (Kd) in the test with HLA-A*69:01 (setting [6]), with HLA-B*15:01 (setting [6]), with HLA-B*15:17 (setting [6]), with HLA-B*18:01 (setting [6]), with HLA-B*27:03 (setting [6]) and in the test with HLA-B*39:01 (setting [6]) was ≥ 20 µM throughout. For the same sequence, the Kd in the test with HLA-B*46:01 (setting [6]), with HLA-B*51:01 (setting [6]) and with HLA-B*57:01 (setting [6]) was ≥ 20 µM each time.
For MLYPRVWPY, the Kd with HLA-C*07:02 (source organism: Homo sapiens) is 0.238 µM; in the test with HLA-C*14:02, 0.246 µM; with HLA-C*15:02, ≥ 20 µM; with HLA-A*01:01, 1.08 µM; in the test with HLA-A*29:02 (source organism: Homo sapiens), ≤ 0.0001 µM.
Turning to YQTYVSPGA, the dissociation constant Kd with HLA-A*02:01 [2] (setting [7]) is 0.0004 µM; with HLA-A*02:11 (setting [7]), ≥ 20 µM; in the test with HLA-A*02:12 (setting [7]) it was ≥ 20 µM; with HLA-A*02:16 (setting [7]), ≤ 0.0001 µM; in the test with HLA-A*02:19 (setting [7]), ≥ 20 µM; with HLA-A*03:01 (setting [7]) it was ≥ 20 µM. Further, the Kd in the test with HLA-A*23:01 (setting [7]), in the test with HLA-A*24:03 (setting [7]), with HLA-A*26:01 (setting [7]), in the test with HLA-A*29:02 (setting [7]), with HLA-A*69:01 (setting [7]) and in the test with HLA-B*15:01 (setting [7]) was ≥ 20 µM each time. Besides, the Kd in the test with HLA-B*15:17 (setting [7]), in the test with HLA-B*18:01 (setting [7]), with HLA-B*27:03 (setting [7]), with HLA-B*46:01 (setting [7]), with HLA-B*51:01 (setting [7]) and with HLA-B*57:01 (setting [7]) was ≥ 20 µM in each case.
With YIYTRSFQM, the dissociation constant (Kd) in the test with HLA-C*07:02 (setting [8]) was 0.163 µM; with HLA-A*02:01 [2] (setting [8]), 0.0004 µM; in the test with HLA-A*26:01 (setting [8]), 0.593 µM; in the test with HLA-B*08:01 it was 0.0487 µM; with HLA-B*15:01 (setting [8]), 0.351 µM.

The record behind these values is the Immune Epitope Database (IEDB).
